From US20030105303A1 come the findings set out here.

For assay [1], the target named is DNAX Leukocyte Associated Immunoglobulin-like Receptor (DLAIR-1), the DX26 antigen / YE01 gene product (human). As to the kind of experiment: flow cytometry (FACScan) on HL60 promyeloid tumor cells; PE goat-anti-mouse-IgG second step.
For assay [2] the target is unchanged. The assay is described as follows: flow cytometry (FACScan) on U937 myeloid tumor cells; PE goat-anti-mouse-IgG second step. Background: In flow cytometry, cells or beads pass a laser one at a time.
Assay [3] shares this target. The assay is described as follows: flow cytometry (FACScan) on Jurkat T cell tumor cells; PE goat-anti-mouse-IgG second step.
For assay [4] the target is unchanged. As to the kind of experiment: flow cytometry (FACScan) on HUT78 T cell tumor cells; PE goat-anti-mouse-IgG second step.
Assay [5] shares this target. As to the kind of experiment: flow cytometry (FACScan) on CEM T cell tumor cells; PE goat-anti-mouse-IgG second step.
For assay [6] the target is unchanged. The assay is described as follows: flow cytometry (FACScan) on Molt4 T cell tumor cells; PE goat-anti-mouse-IgG second step.
Assay [7] shares this target. As to the kind of experiment: flow cytometry (FACScan) on Peer T cell tumor cells; PE goat-anti-mouse-IgG second step.

On to DX26 monoclonal antibody, for which the mean fluorescence intensity in assay [1] worked out at 46.9; in assay [2], 49.5; in assay [3] it was 47.1; in assay [4], 25.8; in assay [5] it was 92.7; in assay [6], 30.7. This substance had a mean fluorescence intensity in assay [7] of 29.1.
